The sequences below were run on Escherichia coli TOP10 (assay: shrunken log2 fold change of peptide-encoding DNA abundance (4.5 h post-induction vs induction); higher = less antimicrobial activity (less host growth inhibition)). Settings: time post-induction: 4.5 h; library: site-saturation at positions 5, 18, 19, 20.
For RRIRIRPPRLPRPRPRPFGLPRP, the “shrunken log2 fold change” value was -0.129. RRIRTRPPRLPRPRPRPQIFPRP was tested, and the “shrunken log2 fold change” value was -0.716. For RRIRTRPPRLPRPRPRPWIGPRP, the “shrunken log2 fold change” value was -0.233. For RRIRKRPPRLPRPRPRPMWYPRP, the “shrunken log2 fold change” value was 0.0551. In the case of RRIRIRPPRLPRPRPRPQDYPRP, the “shrunken log2 fold change” value is reported as -0.162. RRIRMRPPRLPRPRPRPQVRPRP was tested, and the “shrunken log2 fold change” value was -0.0122. In the case of RRIRGRPPRLPRPRPRPQGFPRP, the “shrunken log2 fold change” value is reported as 0.441. With RRIRTRPPRLPRPRPRPLIGPRP the “shrunken log2 fold change” value was -0.413. For RRIRVRPPRLPRPRPRPRLFPRP, the “shrunken log2 fold change” value was 0.447. In the case of RRIRWRPPRLPRPRPRPKQLPRP, the “shrunken log2 fold change” value is reported as -0.0021. In the case of RRIRDRPPRLPRPRPRPGNDPRP, the “shrunken log2 fold change” value is reported as 0.0652. RRIRERPPRLPRPRPRPPCEPRP was tested, and the “shrunken log2 fold change” value was -0.075. In the case of RRIRSRPPRLPRPRPRPWHNPRP, the “shrunken log2 fold change” value is reported as -0.00544. In the case of RRIRNRPPRLPRPRPRPYNNPRP, the “shrunken log2 fold change” value is reported as -1.19. For RRIRWRPPRLPRPRPRPDAYPRP, the “shrunken log2 fold change” value was 0.309. For RRIRVRPPRLPRPRPRPFDFPRP, the “shrunken log2 fold change” value was -0.266. RRIRVRPPRLPRPRPRPCQTPRP was tested, and the “shrunken log2 fold change” value was -0.03. In the case of RRIRMRPPRLPRPRPRPDMCPRP, the “shrunken log2 fold change” value is reported as 1.86. For RRIRHRPPRLPRPRPRPYDWPRP, the “shrunken log2 fold change” value was -0.0123. For RRIRGRPPRLPRPRPRPYPEPRP, the “shrunken log2 fold change” value was 0.0556. For RRIRLRPPRLPRPRPRPTECPRP, the “shrunken log2 fold change” value was -0.243. For RRIRYRPPRLPRPRPRPAIGPRP, the “shrunken log2 fold change” value was -0.105. In the case of RRIRLRPPRLPRPRPRPDQDPRP, the “shrunken log2 fold change” value is reported as -0.218. With RRIRDRPPRLPRPRPRPTWPPRP the “shrunken log2 fold change” value was 0.501. RRIRFRPPRLPRPRPRPINEPRP was tested, and the “shrunken log2 fold change” value was -0.11. For RRIRDRPPRLPRPRPRPYEHPRP, the “shrunken log2 fold change” value was 0.077. With RRIRMRPPRLPRPRPRPTVCPRP the “shrunken log2 fold change” value was 0.53. RRIRKRPPRLPRPRPRPPKSPRP was tested, and the “shrunken log2 fold change” value was 0.462. RRIRVRPPRLPRPRPRPVREPRP was tested, and the “shrunken log2 fold change” value was 0.3. RRIRLRPPRLPRPRPRPMRQPRP was tested, and the “shrunken log2 fold change” value was 0.181. For RRIRQRPPRLPRPRPRPHTCPRP, the “shrunken log2 fold change” value was -0.325. For RRIRWRPPRLPRPRPRPQQLPRP, the “shrunken log2 fold change” value was -0.289. RRIRDRPPRLPRPRPRPTRRPRP was tested, and the “shrunken log2 fold change” value was 0.206. In the case of RRIRLRPPRLPRPRPRPMDHPRP, the “shrunken log2 fold change” value is reported as -0.00264. With RRIRQRPPRLPRPRPRPALAPRP the “shrunken log2 fold change” value was 0.73. RRIRGRPPRLPRPRPRPWVDPRP was tested, and the “shrunken log2 fold change” value was 0.308. RRIRSRPPRLPRPRPRPKEEPRP was tested, and the “shrunken log2 fold change” value was 0.0302. RRIRKRPPRLPRPRPRPPCRPRP was tested, and the “shrunken log2 fold change” value was 0.264. In the case of RRIRNRPPRLPRPRPRPCYKPRP, the “shrunken log2 fold change” value is reported as -0.173. For RRIRCRPPRLPRPRPRPVIKPRP, the “shrunken log2 fold change” value was -0.0948. For RRIRERPPRLPRPRPRPIENPRP, the “shrunken log2 fold change” value was 0.0371. With RRIRQRPPRLPRPRPRPEDKPRP the “shrunken log2 fold change” value was 0.0591. With RRIRPRPPRLPRPRPRPTGPPRP the “shrunken log2 fold change” value was 0.212. In the case of RRIRHRPPRLPRPRPRPPCLPRP, the “shrunken log2 fold change” value is reported as -0.0439. With RRIRNRPPRLPRPRPRPHAYPRP the “shrunken log2 fold change” value was 0.00658. With RRIRYRPPRLPRPRPRPRPVPRP the “shrunken log2 fold change” value was 0.0983. With RRIRARPPRLPRPRPRPLDGPRP the “shrunken log2 fold change” value was 0.425. RRIRTRPPRLPRPRPRPKCAPRP was tested, and the “shrunken log2 fold change” value was 0.909. For RRIRPRPPRLPRPRPRPRWSPRP, the “shrunken log2 fold change” value was 0.108. RRIRFRPPRLPRPRPRPEHMPRP was tested, and the “shrunken log2 fold change” value was 0.0146. RRIRKRPPRLPRPRPRPADGPRP was tested, and the “shrunken log2 fold change” value was 0.223. In the case of RRIRVRPPRLPRPRPRPCMQPRP, the “shrunken log2 fold change” value is reported as 0.162. RRIRYRPPRLPRPRPRPAWMPRP was tested, and the “shrunken log2 fold change” value was -0.0583. In the case of RRIRQRPPRLPRPRPRPSEHPRP, the “shrunken log2 fold change” value is reported as -0.195. For RRIRERPPRLPRPRPRPHGIPRP, the “shrunken log2 fold change” value was -0.00973. In the case of RRIRQRPPRLPRPRPRPHRDPRP, the “shrunken log2 fold change” value is reported as -0.322. In the case of RRIRPRPPRLPRPRPRPVHSPRP, the “shrunken log2 fold change” value is reported as 0.127. In the case of RRIRTRPPRLPRPRPRPHPSPRP, the “shrunken log2 fold change” value is reported as 0.00449. RRIRRRPPRLPRPRPRPTDAPRP was tested, and the “shrunken log2 fold change” value was 0.198. In the case of RRIRHRPPRLPRPRPRPYHRPRP, the “shrunken log2 fold change” value is reported as -0.00968. In the case of RRIRCRPPRLPRPRPRPNRGPRP, the “shrunken log2 fold change” value is reported as -0.00554. With RRIRIRPPRLPRPRPRPHYMPRP the “shrunken log2 fold change” value was -0.943. RRIRCRPPRLPRPRPRPATEPRP was tested, and the “shrunken log2 fold change” value was 0.309. For RRIRERPPRLPRPRPRPSVMPRP, the “shrunken log2 fold change” value was -0.175. For RRIRQRPPRLPRPRPRPNTDPRP, the “shrunken log2 fold change” value was -0.166. In the case of RRIRHRPPRLPRPRPRPGRWPRP, the “shrunken log2 fold change” value is reported as 0.413. With RRIRCRPPRLPRPRPRPSGQPRP the “shrunken log2 fold change” value was -0.0552. RRIRMRPPRLPRPRPRPARHPRP was tested, and the “shrunken log2 fold change” value was 0.974. RRIRCRPPRLPRPRPRPHMHPRP was tested, and the “shrunken log2 fold change” value was -0.527. With RRIRHRPPRLPRPRPRPNPCPRP the “shrunken log2 fold change” value was -0.132. RRIRGRPPRLPRPRPRPPEDPRP was tested, and the “shrunken log2 fold change” value was 1.21. For RRIRWRPPRLPRPRPRPTTWPRP, the “shrunken log2 fold change” value was 0.297. RRIRKRPPRLPRPRPRPQFPPRP was tested, and the “shrunken log2 fold change” value was -0.00782. With RRIRRRPPRLPRPRPRPIVRPRP the “shrunken log2 fold change” value was 0.117. With RRIRWRPPRLPRPRPRPRMCPRP the “shrunken log2 fold change” value was 0.272.
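Note: peptides expressed intracellularly from a pBAD plasmid library in pooled LB shake-flask culture, induced with 0.3% L-arabinose, DNA abundance read by NGS, three biological replicates, DESeq2 with apeglm shrinkage.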
